Experimental data as given in paper PMC9786172 (Molecules, 2022).

Experiments:
in vivo = assay: in vivo; parameters: species or system Sprague-Dawley rat; settings: rat
Method: Chromatographic analysis was performed on a Shimadzu Nexera LC-30AD UPLC system, and mass spectrometric detection was performed on an LCMS-8050 triple quadrupole mass spectrometer (Shimadzu Co., Kyoto, Japan) in the positive ESI and MRM mode. […] The gradient elution of the mobile phase consisting of 0.1% formic acid in water (solvent A) and 0.1% formic acid in acetonitrile (solvent B) was performed at a flow rate of 0.3 mL/min as follows (solvent A:solvent B, v/v): maintained at 19.3 for 0.01 min; ramped from 19.3 to 39.6 for 2.49 min; maintained at 39.6 for 0.01 min; ramped from 39.6 to 90 for 2.99 min; reverted to 19.3 for 0.01 min; and maintained for 1.99 min (total run time: 7.5 min). The ion source parameters were set as follows: nebulizing gas flow, 3 L/min; drying gas flow, 10 L/min; heating gas flow, 10 L/min; interface temperature, 300 °C; desolvation temperature, 250 °C; and heating block temperature, 400 °C. […] Rats underwent surgical implantation of a cannula in the femoral artery under anesthesia, as previously described. The LOC was dissolved in phosphate-buffered saline (pH 5.7). […] A blood sample of approximately 0.3 mL was collected via femoral artery cannulation at various time points (0, 1, 3, 5, 10, 20, 30, 60, 90, 120, 180, 240, 360, 480, and 600 min), then collected in heparin pre-treated microcentrifuge tubes. These blood samples were centrifuged at 4000× g for 10 min to obtain plasma and were frozen at −20 °C until analysis. Non-compartmental analysis was performed using Phoenix WinNonlin ver. 3.1 (Certara USA Inc., Princeton, NJ, USA) to estimate the following pharmacokinetic parameters: AUClast; total area under the plasma concentration versus time curve from time zero to time infinity (AUCinf); Cmax; Tmax; t1/2; and MRTinf. Values were obtained directly from the concentration–time plot. All values are reported as the mean ± standard deviation.

[1] = Stability of analytes in rat plasma samples (method validation)
Method: QC samples were prepared using the same process as that used for the calibration standards.
Plasma samples (100 µL) were mixed with 300 µL of 5% formic acid (in water) and vortexed for 5 min. Then, 500 µL acetonitrile of containing 20 ng/mL IS was added to the resultant mixture and vortexed for 5 min. After centrifugation at 14,500× g for 10 min at 4 °C, 800 µL of the supernatant was collected, dried under vacuum using a SpeedVac (Eyela, Tokyo, Japan), reconstituted with 50 μL of methanol, and injected into the LC-MS/MS system.
Using the calibration standard and QC samples, the present LC-MS/MS method was validated in terms of its selectivity, LLOQ, linearity, accuracy, precision, recovery, and stability according to the United States Food and Drug Administration guidelines for bioanalytical method validation [20].
Stability was determined under various analytical handling and storage conditions, such as bench-top, freeze–thaw, post-preparative, and long-term storage, at two QC levels (LQC and HQC).

[2] = in vivo; cited from earlier work

SMILES | Tmax (in vivo; male, Sprague-Dawley, sc) | half-life (in vivo; male, Sprague-Dawley, sc) | level at 1 h (in vivo; male, Sprague-Dawley, sc, 0.122 mg/kg) | Autosampler stability (percentage of drug remaining), LQC ([1]; rat plasma samples, post-preparative, 3 ng/mL, 10 °C for 24 h in the autosampler, LC-MS/MS, mean ± SD, n = 5) | Autosampler stability (percentage of drug remaining), HQC ([1]; rat plasma samples, post-preparative, 800 ng/mL, 10 °C for 24 h in the autosampler, LC-MS/MS, mean ± SD, n = 5) | Bench-top stability (percentage of drug remaining), LQC ([1]; rat plasma, 3 ng/mL, room temperature for 3 h, LC-MS/MS, mean ± SD, n = 5) | Freeze-thaw stability (percentage of drug remaining), LQC ([1]; rat plasma, 3 ng/mL, three freezing and thawing cycles every 12 h at −20 °C, LC-MS/MS, mean ± SD, n = 5) | Long-term stability (percentage of drug remaining), LQC ([1]; rat plasma, 3 ng/mL, −20 °C for 30 d, LC-MS/MS, mean ± SD, n = 5) | Bench-top stability (percentage of drug remaining), HQC ([1]; rat plasma, 800 ng/mL, room temperature for 3 h, LC-MS/MS, mean ± SD, n = 5) | Freeze-thaw stability (percentage of drug remaining), HQC ([1]; rat plasma, 800 ng/mL, three freezing and thawing cycles every 12 h at −20 °C, LC-MS/MS, mean ± SD, n = 5) | Long-term stability (percentage of drug remaining), HQC ([1]; rat plasma, 800 ng/mL, −20 °C for 30 d, LC-MS/MS, mean ± SD, n = 5) | Recovery values after exposure to different stability conditions ([1]; rat plasma, 3 and 800 ng/mL, range over bench-top, autosampler, freeze-thaw and long-term conditions) | Calculated plasma concentration at 60 min after subcutaneous administration of LOC (in vivo) | MRTinf in the intravenous group [2]
CCCCCCCC/C=C\CCCCCCCC(=O)OC[C@H](NC(=O)[C@H](Cc1c[nH]c2ccccc12)NC(=O)[C@H](Cc1c[nH]cn1)NC(=O)[C@@H]1CCC(=O)N1)C(=O)N[C@@H](Cc1ccc(O)cc1)C(=O)N[C@H](CC(C)C)C(=O)N[C@@H](CC(C)C)C(=O)N[C@@H](CCCNC(=N)N)C(=O)N1CCC[C@H]1C(=O)NCC [LOC] | 300 min | 172 ± 66 min | 11.7 ng/mL | 102 ± 9% | 92.7 ±1.2% | 105 ± 7% | 107 ± 4% | 91.2 ± 4.0% | 97.7± 2.0% | 107 ± 4% | 93.4 ± 2.6% | 91.2–107% | – | –
CCNC(=O)[C@@H]1CCCN1C(=O)[C@H](CCCNC(=N)N)NC(=O)[C@H](CC(C)C)NC(=O)[C@@H](CC(C)C)NC(=O)[C@H](Cc1ccc(O)cc1)NC(=O)[C@H](CO)NC(=O)[C@H](Cc1c[nH]c2ccccc12)NC(=O)[C@H](Cc1c[nH]cn1)NC(=O)[C@@H]1CCC(=O)N1 [Leuprolide, pyroGlu-His-Trp-Ser-Tyr-D-Leu-Leu-Arg-Pro-NHEt, reference compound] | 15 min | 38.2 ± 4.3 min | – | – | – | – | – | – | – | – | – | – | 1.86 ng/mL | 28.1 min
